# Experiment: label from the status in PepcDB records
# 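Further: failed if final PepcDB status was selected cloned or expressed and not failed if soluble or beyond.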
row,Sequence,protein production
1,MTPEALSFWTQADKPFLFLAACIELTNALAYGPGYVCGLPCSWDGSCSGAQHLCAATRSEDAWKVNLIGNDEVHDLYTIVGNAAKQSMARDTDPMVSTILAYEGDWRKVFKRNTMTTFYGSKGFGMAQQHMDDLMEPLSREVMQKKRAKHPFGQTRKEHHAASRLLAAHAAAAIKGEIPLAIKAMEFIQKLSAMMAHEGKPLEWTTPIGLPWSNRYHDPVTERVNLWMHDHGVRRPFRPVVADGYKKTINKNHSVNGSAPNFVHACDAAHLLRTVNAARAEGITQFALVHDSFGSLPSHAARFRQIIREEFVRMYEEHDVLTEVLEQAKCDLDEHNDKLSALVDMRADLTGKLNIKEVLNAEYAFAYPKLSEPDTKGEYADGKYKTEGTATEDYTERFQEEIQKVADDNFPGKKNVHLPWKETKEGDIAFIFKNPKKKPILTDSRGKPLKEGTVIRGGSKIRIAGVIAAWEKGAKRGVSLWPDAVRVIKLSEGFDANAAFGAAEDGFNADDYEPTNFGNDGEDADNDADDAEAGDDAFKLLEHHHHHH,not failed
2,MTPELNLKSLGAKTPYIFEYNSQLLEAFPNPNPNLDPLITLECKEFTSLCPITSQPDFGVIFIRYIPKDKMVESKSLKLYLFSYRNHGSFHESCINTILLDLVRLLEPKYLEVYGDFASRGGIAIKPFVNYAIKEYQDFKEKRLLNAK,failed
3,MTPETNETLKLIGSDKVQGTAVYGPDGEKIGSIERVMIEKVSGRVSYAVLSFGGFLGIGDDHYPLPWPALKYNVELGGYQVMVTVDQLERAPKYGPGSEWDWRGARKVDDYYGVALT,not failed
4,MTPGEVRRLYFIIRTFLSYGLDELIPKMRITLPLRLWRYSLFWMPNRHKDKLLGERLRLALQELGPVWIKFGQMLSTRRDLFPPHIADQLALLQDKVAPFDGKLAKQQIEAAMGGLPVEAWFDDFEIKPLASASIAQVHTARLKSNGKEVVIKVIRPDILPVIKADLKLIYRLARWVPRLLPDGRRLRPTEVVREYEKTLIDELNLLRESANAIQLRRNFEDSPMLYIPEVYPDYCSEGMMVMERIYGIPVSDVAALEKNGTNMKLLAERGVQVFFTQVFRDSFFHADMHPGNIFVSYEHPENPKYIGIDCGIVGSLNKEDKRYLAENFIAFFNRDYRKVAELHVDSGWVPPDTNVEEFEFAIRTVCEPIFEKPLAEISFGHVLLNLFNTARRFNMEVQPQLVLLQKTLLYVEGVGRQLYPQLDLWKTAKPFLESWIKDQVGIPALVRAFKEKAPFWVEKMPELPELVYDSLRQGKYLQHSVDKIARELQSNHVRQGQSRYFLGIGATLVLSGTFLLVSRPEWGLMPGWLMAGGLIAWFVGWRKTR,failed
5,MTPGTGSALGLLAAAVDAKAVAEIGTGCGVSGIHLLHGMRPDGVLTTVDPEPEHQQFARHAFRAAGFASNRARFIPGRALDVLPRLADAGYDLVFCDGDRLEYLDYLAESLRLLRPGGLVAFEGVFGAGRTIDSGPQPTEVLRVRELLRAVRESQELVPSLLPVGDGLLCAVKR,failed
6,MTPPASSSPCSSSDKRNRAVPSAKALMVWRAGPDGRPLDPSQFPQDPPARRDGDGGGAEAWLNLVHPEEREAVLLLWRRALREGEEFEARYRLHRGLSGYRWALGQGRPLRGDDGEVREWIGTVVDIHDHMEAERTIALSEERLRLALDSADLGVWECTIATNQWWFSEAALRILGCPPDAETSIETVMGAIHSDDLDGLRARWHAARTGRARDRMEGEFRIQRGGGRLGWIACSARLVADDGKAVTRMLGTLRDITKTRLQREKLYHLAHFDPLTGLPNRHEMITRTQATLASGGAAGGAGAILLLDLDGFKEANDTLGQATGDALLKRIAHRLVSSLPADSLIGRVGGDEFLVVVPGVAEQWTATRIADGLYDVLTVPFVIGDRRIPLSGRIGIALAPRDGTSAQDLMTHAELALQETKTISGCVTRFFSPRLHDEARERQDMGLELRRATDNGEFELFYQPQIRLSDRAVVGAEALLRWRHPTRGVMPPAAFLHVLKRGPLAGEVGEWVVAKACADAAGLLNAGSRIRMAVNLFSAQFKAGTVDATVRRSLLESGLPAELLELEITEKVTLDRDEGILTCLKGLRDLGCGVAFDDYGTGYASLSMLKRYPLTRLKIDRAFVQHLAESPKDGAIVRAVLSLGNTFGLSVTAEGIEEEEQEKLLLGQGCDEGQGYFFGRPMPLADFIQFLARVKKNPGEFPTPA,failed
7,MTPQDAQAFEQLLANCADEPIRSPGAIQPHGVLLTLSEPELRIQQISANVEALLGQPAAQVLGQPLEQLLGDTDGQRIREVLQLPRLSDAPPLHLAVNGARFEGLLHRHQGVLMLELEIQLEHLQPQHLKEQTENLGRLLRRLQTAKTLNELYAISVSEIQAMTGYDRVLIYRFEEEGHGQVIAEATRPTMEVFNGLFFPASDIPQQARELYRSNWLRIIPNADYQPVPLLPALRPDTQQALDLSFATLRSVSPIHCQYMKNMGVLSSMSISLLKGDQLWGLISCGNRQPLLVPHELRIACQTIGQVLSLQISAMEALDISRQREEKVTALASLDQAMRDTPDSVFDGLAQVPQLLLDLTQAGGVAIIEDKQLHCFGNCPPQDEIRALHRWLQGTGQAVFASHHLANVYPPAASYQQVASGVLAMTLPKPVDNGVLWFRPEVKENINWSGNPQKPLDLENSDAGLRLRPRTSFEIWKVEMAGISTKWSHGDRFAANDLRRSALEHDLARQVLREQQAVRARDELVAVVSHDLRNPMTVISMLCGMMQKAFSSDGPHTSRRISSAIDTMQQAASRMNNLLEDLLDTSKIEAGRYSIAPQPLDVSQMFEEAYSLLAPLALDKAIDISFHAEPDLRINADPERLFQVLSNLVGNAIKFTPKQGKVGVVAMSDGEQIVFSVRDSGEGIPTDQLPFIFDRYWTMKEGNPNGTGLGLYITQGIIHAHGGKIEAHSEVGKGSEFRFSVPRASL,failed
8,MTPRHQRDLSRRKLLAALAGTAVAVPAAAMGAPHALATVASDNGGAAPRAAGALPLTIVNRTGSFANSSVHLYIVGNEDGKQVRVTSEGTLAPISLADNGADGFTDYAIALSGSGETRLSLPYMSGRIYVALGDKLKLKAVADGNGNAALQYPAGWVESDPNYRVLHDCAEFTHNSAGMFCNTTMVDMFSVPLSIRLTGTKDQTTGTLRDGGRARVFAAVKSVPEFERLVVDDLRVIAPGHGLDAGIFAEDYFAPYIDEVWSTYTGKDLTVTTNAGAFTGRVRGDKLTFTGPASVSFSKPSTRDVFFCDGSLAAPNDGTTGPVAAVLGAGFNRSTLVNDSAQPTTDPAAFYGSALANHYAKAIHAATEDGKAYGFAFDDVADFASYIQDTAPTGINLTLTPF,failed
9,MTPRHQRPLARRKLLVALGGAVVAAPVAAAVAPHALAGIGPDGPAPAAAGALPLTIVNDTGSFGNADVHVYIVGNVDGRQVRVTPDGTVAPVALSDNGADGYTDYAIGLSGSGETKLSLPHLSGRIYVSLGEKLKFKVVADGAGNAALQYPAGWVESDPNYAVLHDCAEFTYNAAGMFCNTTMVDMFSVPLAIRLTGADDRTTGTVRPGGRAAVFEAVRKVEEFAPLVVDDTRVIAPGHGLDAGLFPKDYLAPYIDEVWSTYTGKDLRITTNAGTFTGRVRGDRLTFDGPAQVSFAKPSTRDVLFCDGNLAAPNDGTTGPVAAVLGAGFNRSTLVSSAEQPTTDPATFYGTALTNHYAKAVHAATEDGRAYGFAFDDVADFASYIQDTAPTGIRLTLGAFLEHHHHHH,failed
10,MTPVLSLDMEDPIRFIDENGSFEVVKVGHNLAIHGKKIFDELAKRNLKIILDLKFCDIPSTVERSIKSWDHPAIIGFTVHSCAGYESVERALSATDKHVFVVVKLTSMEGSLEDYMDRIEKLNKLGCDFVLPGPWAKALREKIKGKILVPGIRMEVKADDQKDVVTLEEMKGIANFAVLGREIYLSENPREKIKRIKEMRL,not failed
11,MTQAFSRVRFIMTQPSHPGNVGSAARAIKTMGFGELVLVAPRFPDMTAQPEAVALASGALDVLERAAVHDTLEEALAPVTLAFALTTRVRDLGPPPCDIREAAGLARRHLDDTEAGVVAIVLGTERAGLTNAQIELCHRICHIPANPQYSSLNVAQALQLAAWELRYALLAGTGQSLLPASSAQQANPGAAPADGAAVQALLAHWEQALVAVGFLDPAHPKKLMPRMKHLLTRSALSRDEVDMLRGVCTAMIAPNRPK,not failed
12,MTQAKFVEGSILRHILVMSSTAAVGISALFVVDLLDIFFLSLLGEHELAAAVGYAGSISFFTTLIGIGLSIALGALVSRSIGAKDVELAKRLLLNSAVVTTLISVFVSIVVTTFIPELVTLVGASGHTAELAESYLYILVPSLPFICLAMALGGALRSVGDAKLSMMSTLAGGGVNAVLDPIFIFLFAMGIEGAALASVLARITVFVIAGRGVMVKHQLLGKFNRSDFKADLKPIFAIAGPAILTNIATPIGNAFVTRAIADFGDAYVAGWAVLGRLVPVTFGMIFALSGAIGPIVGQNFGAGRFDRVRESLTKAIQFCTLYVVVMSLLLFLLKSQIVSLFDMKGDSAALIEFFCSYIAVFFIFSGILFVANASFNNLGKAKYSTLFNVGKATLGTVPFVYVGAQLGGVYGVLIGQVIGSILFGVVGVWVAYRLVDKVVLTSTGHGVVSLATDADELMTDTVAPSATSPLSSSCAQMAQLTEEQEMEPVLPLIGQQDNSRR,failed
13,MTQASRSEFRAELLSRIPRWYSPWGHLLFPAVAGLAIAAFALSRIEDLAAWQLAAVPAFLVFGNAVEWTAHRGMLHRRLRFAEVFYVRHTPQHHAVYVADDMAMRDWRELKLVLLPAYGVLAILAVTSPLTLAFLWLRQPNLAALWVASVVLYVLSYEWLHLAYHLPADRWLARTALVRTLRRHHQLHHAPHLMNRWNFNVTVPLWDWVRGTLYPAPAPGSRPAAQPTGAAGRAP,failed
14,MTQHITRMRREIDEIPEAVQRLLDHGAQDVARVAAVLRLRDPSFVATVARGSSDHVCTYLSYAAELLLGLPVASLGPSVASVYDARLRLDRALCLAVSQSGKSPDIVAMTRNAGRDGALCVALTNDAASPLAGVSAHTIDIHAGPELSVAATKTFVTSAVAGLMLLADWAEDDGLRAALGNLPETLAAASRIDWPEMRVAIGARPSLFTLGRGTSLAVSNEAALKFKETCQLHAESYSSAEVLHGPVSIVEEGFPVLGFAAGDAAEAPLAEIADQIAAKGATVFATTGRVTRARVLEHVRSGHALTDPLSLIVSFYSMVEAFASERGIDPDAPRHLNKVTETV,not failed
15,MTQKNVITEVFDIVFIFVLAFACVVIPTVLQGAVLVSWEEGGAGIGFVWDPVGFFSFLLVIVAFFAVILYHSVKHYRY,failed
16,MTQMRMPTSPTRPATAWPLYALPSPGEAIRQFTPNWFAVTMGTGILSLVLGQLPWPVPGAALLGAGLWRCNVGLFVVFSALYLARWALYPHEARRILAHPTASMFLGTIPMGLATLINGLLLYGLPRWGAAVIPVATALWWMDAAMALACGVLVPYLMFTRQQHRMEQMTALWLLPVVAAEVAAASAGALAPHLADAGSRFGMLVAGYVLWAYSVPVALGILVILWLRMALHQLPQASMAASSWLALGPIGTGALGMLVFAGDAPALFAAHGMGTIGQAAAGCGLIAGLLLWGLGLWWLALAILITARYFADKVPFNLGWWGFTFPLGVYALATLKLGAALQMQVFDVVGSVLVLLLCVTWTIVAARTAAGAYRGTLFVAPCLVESSEHAPAR,failed
17,MTQQNHLRGVLLASSACILWGISGVAASTLFINNPHLTAMWLTQVRMISAGLILLVWGMVAGKHPFKIWHHRHAAWTAVSYGLLGLIPVQLCYFEAVRVGNAPIATIIQFLGPFIISIYYFLFKHVTPSRIELIGMIMAFIGTLLIVTHGHLNSLAISPVILFWGGLSAIGVATNTLIPRTILPKYGALTVTGWGLLIAGLFLTLLQPMWRVHLTITWPQLGLLIVIILLGTVAPFLMFARSLSDILPTTASLMDAFEPLAATVFSITFLNVQLTSFDFIGGLLIILAVMALSLNTHKMLHFLRRRRAHSSS,failed
18,MTQTNNPLHGITLETIITQLVEHYGWEELGARIKIRCFTEAPSIKSSLRFLRKTDWAREKVEYLYLKTNKLPLPAAKSIQAPAKEPSKKSAPKPNSKPTQTKVVTPTPAVEGQVNSHIWGKRDLEHHHHHH,not failed
